The results in this text go back to paper PMC5148588.

The test has as its target peptide containing the sequence LAETG.

B1: SrtE1^ΔN, extracellular domain of sortase E1 from Streptomyces coelicolor (residues T162-S352), Q9XA14 162-352 (enzyme)
chain: TNVRAHAQANQAASNLQDDWANGKRSPGSFEPGQGFALLHIPKLDVVVPIAEGISSKKVLDRGMVGHYAEDGLKTAMPDAKAGNFGLAGHRNTHGEPFRYINKLEPGDPIVVETQDKYFVYKMASILPVTSPSNVSVLDPVPKQSGFKGPGRYITLTTCTPEFTSKYRMIVWGKMVEERPRSKGKPDALVS
Regarding B1, the hydrolysis of the peptide at the T-G bond, in vitro HPLC assay (area of the N-terminal product peak); preference against the LPETG peptide was 2 fold.
